Where “and” joins values, the source holds several entries; their conditions need not be identical. Identical values can stand only once. Like-named read-outs stand apart in the source and are kept apart here.
Experiments:
[1] = molecular target: human CLDN18.2 (hCLDN18.2), expressed on cells (human); assay: cell-based or functional assay
[2] = molecular target: human CLDN18.2 (hCLDN18.2), expressed on cells (human); assay: cell-based or functional assay; remark: listed apart in the source
[3] = molecular target: T1, human CLDN18.2 (hCLDN18.2), expressed on cells (human); assay: FACS, MFC cells over-expressing hCLDN18.2
T1 construct: the constructs in the cell lines are not described; also called Claudin18.2; HEK293-hCLDN18.2

[4] = molecular target: T1, human CLDN18.2 (hCLDN18.2), expressed …; assay: FACS, HEK293/hCLDN18.2 cells
[5] = molecular target: T1, human CLDN18.2 (hCLDN18.2), expressed …; assay: FACS, SNU620 cells (endogenous CLDN18.2)
[6] = molecular target: T1, human CLDN18.2 (hCLDN18.2), expressed …; assay: cell-based or functional assay; remark: listed apart in the source
[7] = molecular target: T1, human CLDN18.2 (hCLDN18.2), expressed …; assay: FACS, SNU620 cells over-expressing hCLDN18.2

EC50 [4] | EC50 [5] | ADCC EC50 (nM), NK-CD16a effector cells [6] | Binder | other results
– | – | 0.0803 nM | ch35B4 (antibody, V domains shown) VH: EAKLVESGGDFMQPGGSLKLSCAASGFTLSSYALSWVRQTPEKRLEWVAYISNLGGSTFYPDTVKGRFTISRDNARNTLFLQMSSLQSEDTAIYYCATHLYNYDAFASWGQGTLVTVSA VL: QIVLSQSPAILSASPGEKVTMTCRASSSVNYIHWYQQKPGSSPKAWIYATSNLASGVPTRFSGSGSGTSYSLTIDRVEAEDAATYYCQQWNSNPLTFGAGTKLELK | PBMC VS NUGC4 ADCC (EC50 nM) [1]: 4.05 nM; EC50 [7]: 419 pM and 442 pM
– | – | 7.1e-05 nM | hu35B4.H1L2-ADE (antibody, human IgG1) heavy: EVQLLESGGGLVQPGGSLRLSCAASGFTLSSYALSWVRQAPGKGLEWVSYISNLGGSTFYPDTVKGRFTISRDNSKNTLYLQMNSLRAEDTAVYYCAKHLYNYDAFASWGQGTLVTVSSASTKGPSVFPLAPSSKSTSGGTAALGCLVKDYFPEPVTVSWNSGALTSGVHTFPAVLQSSGLYSLSSVVTVPSSSLGTQTYICNVNHKPSNTKVDKKVEPKSCDKTHTCPPCPAPELLAGPDVFLFPPKPKDTLMISRTPEVTCVVVDVSHEDPEVKFNWYVDGVEVHNAKTKPREEQYNSTYRVVSVLTVLHQDWLNGKEYKCKVSNKALPAPEEKTISKAKGQPREPQVYTLPPSREEMTKNQVSLTCLVKGFYPSDIAVEWESNGQPENNYKTTPPVLDSDGSFFLYSKLTVDKSRWQQGNVFSCSVMHEALHNHYTQKSLSLSPGK VL: DIQLTQSPSFLSASVGDRVTITCRASSSVNYIHWYQQKPGKAPKALIYATSNLASGVPSRFSGSGSGTEYTLTISSLQPEDFATYYCQQWNSNPLTFGQGTKLEIK | –
– | – | 2.75e-05 nM | hu35B4.H1L2-DE (antibody, human IgG1) heavy: not shown VL: DIQLTQSPSFLSASVGDRVTITCRASSSVNYIHWYQQKPGKAPKALIYATSNLASGVPSRFSGSGSGTEYTLTISSLQPEDFATYYCQQWNSNPLTFGQGTKLEIK | –
– | – | 9.43e-05 nM | hu35B4.H1L2-VLPLL (antibody, human IgG1) heavy: EVQLLESGGGLVQPGGSLRLSCAASGFTLSSYALSWVRQAPGKGLEWVSYISNLGGSTFYPDTVKGRFTISRDNSKNTLYLQMNSLRAEDTAVYYCAKHLYNYDAFASWGQGTLVTVSSASTKGPSVFPLAPSSKSTSGGTAALGCLVKDYFPEPVTVSWNSGALTSGVHTFPAVLQSSGLYSLSSVVTVPSSSLGTQTYICNVNHKPSNTKVDKKVEPKSCDKTHTCPPCPAPELVGGPSVFLLPPKPKDTLMISRTPEVTCVVVDVSHEDPEVKFNWYVDGVEVHNAKTKPPEEQYNSTLRVVSVLTVLHQDWLNGKEYKCKVSNKALPAPIEKTISKAKGQPREPQVYTLPPSREEMTKNQVSLTCLVKGFYPSDIAVEWESNGQPENNYKTTPLVLDSDGSFFLYSKLTVDKSRWQQGNVFSCSVMHEALHNHYTQKSLSLSPGK VL: DIQLTQSPSFLSASVGDRVTITCRASSSVNYIHWYQQKPGKAPKALIYATSNLASGVPSRFSGSGSGTEYTLTISSLQPEDFATYYCQQWNSNPLTFGQGTKLEIK | –
– | – | 1.32e-05 nM | hu35B4.H1L2-DLE (antibody, human IgG1) heavy: EVQLLESGGGLVQPGGSLRLSCAASGFTLSSYALSWVRQAPGKGLEWVSYISNLGGSTFYPDTVKGRFTISRDNSKNTLYLQMNSLRAEDTAVYYCAKHLYNYDAFASWGQGTLVTVSSASTKGPSVFPLAPSSKSTSGGTAALGCLVKDYFPEPVTVSWNSGALTSGVHTFPAVLQSSGLYSLSSVVTVPSSSLGTQTYICNVNHKPSNTKVDKKVEPKSCDKTHTCPPCPAPELLGGPDVFLFPPKPKDTLMISRTPEVTCVVVDVSHEDPEVKFNWYVDGVEVHNAKTKPREEQYNSTYRVVSVLTVLHQDWLNGKEYKCKVSNKALPLPEEKTISKAKGQPREPQVYTLPPSREEMTKNQVSLTCLVKGFYPSDIAVEWESNGQPENNYKTTPPVLDSDGSFFLYSKLTVDKSRWQQGNVFSCSVMHEALHNHYTQKSLSLSPGK VL: DIQLTQSPSFLSASVGDRVTITCRASSSVNYIHWYQQKPGKAPKALIYATSNLASGVPSRFSGSGSGTEYTLTISSLQPEDFATYYCQQWNSNPLTFGQGTKLEIK | –
– | – | 0.02 nM | hu35B4.H1L2 (antibody, V domains shown, humanized 35B4) VH: EVQLLESGGGLVQPGGSLRLSCAASGFTLSSYALSWVRQAPGKGLEWVSYISNLGGSTFYPDTVKGRFTISRDNSKNTLYLQMNSLRAEDTAVYYCAKHLYNYDAFASWGQGTLVTVSS VL: DIQLTQSPSFLSASVGDRVTITCRASSSVNYIHWYQQKPGKAPKALIYATSNLASGVPSRFSGSGSGTEYTLTISSLQPEDFATYYCQQWNSNPLTFGQGTKLEIK | EC50 [7]: 253 pM

Second part, the binder before the results:

Binder | EC50 [4] | EC50 [5] | ADCC EC50 (nM), NK-CD16a effector cells [6] | other results
ch22E12 (antibody, V domains shown) VH: QVQLQQPGTELVKTGTSVKLSCKASGYTFTNWVHWVIQRPGQGLEWIGEINPTNGRSNYNEKFKKKATLTLDRSSTTAYMQLSSLTSEDSAVYFCAGIYYGNSFAHWGQGTLVTVSA VL: DIVMTQSPSSLTVTAGEKVTLSCKSSQSLLNSGNQKNYLTWYQQKPGQPPKLLIYWSSTRESGVPDRFTGSGSGTDFTLTISSVQAEDLAVYHCQNNYYYPLTFGAGTKLELK | – | – | – | PBMC VS NUGC4 ADCC (EC50 nM) [1]: 1.06 nM; ADCC EC50 (nM), NK-CD16a effector cells [2]: 0.126 nM; EC50 [3]: 1060 pM and 943 pM
97A9 (antibody, V domains shown, mouse hybridoma antibody, purified; also called clone 97A9) VH: QVQLQQSGPELVKPGASMKLSCKASGYSFTRNDINWVKQRPGQGLEWIGLSYPRDGTTQYNGKFKGKATLTVDTSSSTAYMELRSLTSEDSAVYFCARGYYGNSFAYWGQGTLVTVSA VL: DIVMTQSPSSLTVTAGEKVTMSCKSSQSLLNSGNQKNYLTWYQQKPGQPPKLLIYWASTRESGVPDRFTGSGSGTYFTLTISSVQAEDLAVYFCQNDYYFPYTFGGGTKLEIK | 1600 pM | 3300 pM | – | –
22E12 (antibody, V domains shown, mouse hybridoma antibody, purified; also called clone 22E12) VH: QVQLQQPGTELVKTGTSVKLSCKASGYTFTNWVHWVIQRPGQGLEWIGEINPTNGRSNYNEKFKKKATLTLDRSSTTAYMQLSSLTSEDSAVYFCAGIYYGNSFAHWGQGTLVTVSA VL: DIVMTQSPSSLTVTAGEKVTLSCKSSQSLLNSGNQKNYLTWYQQKPGQPPKLLIYWSSTRESGVPDRFTGSGSGTDFTLTISSVQAEDLAVYHCQNNYYYPLTFGAGTKLELK | 860 pM | 2100 pM | – | –
hu22E12.H1L2-VLPLL (antibody, human IgG1) heavy: QVQLVQSGAEVKKPGASVKVSCKASGYTFTNWVHWVRQAPGQGLEWMGEINPTNARSNYNEKFKKRVTMTRDTSTSTVYMELSSLRSEDTAVYYCARIYYGNSFAHWGQGTLVTVSSASTKGPSVFPLAPSSKSTSGGTAALGCLVKDYFPEPVTVSWNSGALTSGVHTFPAVLQSSGLYSLSSVVTVPSSSLGTQTYICNVNHKPSNTKVDKKVEPKSCDKTHTCPPCPAPELVGGPSVFLLPPKPKDTLMISRTPEVTCVVVDVSHEDPEVKFNWYVDGVEVHNAKTKPPEEQYNSTLRVVSVLTVLHQDWLNGKEYKCKVSNKALPAPIEKTISKAKGQPREPQVYTLPPSREEMTKNQVSLTCLVKGFYPSDIAVEWESNGQPENNYKTTPLVLDSDGSFFLYSKLTVDKSRWQQGNVFSCSVMHEALHNHYTQKSLSLSPGK VL: DIVMTQSPDSLAVSLGERATINCKSSQSLLNAGNQKNYLTWYQQKPGQPPKLLIYWSSTRESGVPDRFSGSGSGTDFTLTISSLQAEDVAVYHCQNNYYYPLTFGGGTKLEIK | – | – | – | ADCC EC50 (nM), NK-CD16a effector cells [2]: 0.00997 nM
hu22E12.H1L2 (antibody, V domains shown, humanized 22E12) VH: QVQLVQSGAEVKKPGASVKVSCKASGYTFTNWVHWVRQAPGQGLEWMGEINPTNARSNYNEKFKKRVTMTRDTSTSTVYMELSSLRSEDTAVYYCARIYYGNSFAHWGQGTLVTVSS VL: DIVMTQSPDSLAVSLGERATINCKSSQSLLNAGNQKNYLTWYQQKPGQPPKLLIYWSSTRESGVPDRFSGSGSGTDFTLTISSLQAEDVAVYHCQNNYYYPLTFGGGTKLEIK | – | – | – | ADCC EC50 (nM), NK-CD16a effector cells [2]: 0.144 nM; EC50 [3]: 1320 pM
33G12 (antibody, V domains shown, mouse hybridoma antibody, purified; also called clone 33G12) VH: EVKLVESGGGLVQPGGSLKLSCAASGFTFSRYAMSWVRQTPEKRLEWVAYISIGGTTYYPDTIKGRFTISRDNAKNTLYLQMSSLKSEDTAMYYCTRHYYGHDVMDYWGQGTSVTVSS VL: QIVLSQSPTILSASPGEKVTMTCRATSSVSYMHWFQQKPGSSPKPWIYATSNLASGVPARFSGSGSGTSYSLTISRVEAEDAATYYCQQWSRNPLTFGAGTKLELK | 560 pM | 1100 pM | – | –
35B4 (antibody, V domains shown, mouse hybridoma antibody, purified; also called clone 35B4) VH: EAKLVESGGDFMQPGGSLKLSCAASGFTLSSYALSWVRQTPEKRLEWVAYISNLGGSTFYPDTVKGRFTISRDNARNTLFLQMSSLQSEDTAIYYCATHLYNYDAFASWGQGTLVTVSA VL: QIVLSQSPAILSASPGEKVTMTCRASSSVNYIHWYQQKPGSSPKAWIYATSNLASGVPTRFSGSGSGTSYSLTIDRVEAEDAATYYCQQWNSNPLTFGAGTKLELK | 850 pM | 3800 pM | – | –
99H8 (antibody, V domains shown, mouse hybridoma antibody, purified; also called clone 99H8) VH: QVQLQQSGPELVKPGASVKLSCKASGYSFTNFDINWVKQRPGQGLQWIGRLYPRDGTTTYNEKFKGKASLTVDTSSTTSYMDLHSLTSEDSAVYFCVRGNYGNSFAYWGQGTLVTVSA VL: DIVMTQSPSSLTVTAREKVIMNCKSSQSLFNSGNQKNYLTWYQQKPGQSPKLLIYWASTRQSGVPDRFTGSGSGTDFTLTISTVQAEDLAVYFCQNGFSFPYTFGGGTKLEMN | 1100 pM | 19000 pM | – | –
